These results are taken from PMC9177745 (Biochemistry, 2022).

Data set [1] concerns the target T1, PhnY (in the 1:1 PhnY/Z system) (uncultured bacterium HF130_AEPn_1, UniProt D0E8I4).
T1 sequence (D0E8I4 1-262): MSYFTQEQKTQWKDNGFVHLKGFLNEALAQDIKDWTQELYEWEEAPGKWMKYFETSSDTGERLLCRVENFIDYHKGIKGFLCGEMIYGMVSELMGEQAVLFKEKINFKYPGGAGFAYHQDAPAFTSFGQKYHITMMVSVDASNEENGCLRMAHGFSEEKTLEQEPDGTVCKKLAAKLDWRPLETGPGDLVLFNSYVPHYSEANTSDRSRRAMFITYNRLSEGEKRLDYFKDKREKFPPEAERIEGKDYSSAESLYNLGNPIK
Description: steady-state kinetics of the coupled PhnY/Z system. In kind it is biochemical. As to conditions: two-enzyme PhnY/Z system; apparent Km of the system.

Substrate in data set [2]: NC[C@H](O)P(=O)(O)O
The data set is described as follows: steady-state kinetics, C-P bond cleavage. In kind it is biochemical, uncultured bacterium HF130_AEPn_1. As to conditions: O2; mixed-valent diiron site.

Substrate in data set [3]: NC[C@H](O)P(=O)(O)O
Description: steady-state kinetics, C-P bond cleavage. The note with it: O2; mixed-valent diiron HD-domain site. In kind it is biochemical, Fonsecaea multimorphosa.

Substrate in data set [4]: NCCP(=O)(O)O
Description: steady-state kinetics, conversion to inorganic phosphate. In kind it is biochemical, Fonsecaea multimorphosa. As to conditions: O2, alpha-ketoglutarate, Fe(II), ascorbate; apparent Km of the two-step reaction.

Substrate in data set [5]: NCCCP(=O)(O)O
The description is as above. The note with it: two-step reaction to phosphate; co-substrates presumably as for 2AEP. Type of data set: biochemical, Fonsecaea multimorphosa.

With `NCCCP(=O)(O)O` [3APP], the KM result in data set [1] was “the PhnY/Z system is also able to act on 3APP”.

B1: PhnZ (uncultured bacterium HF130_AEPn_1) (protein)
chain: MSLSNSSKVSVLISLLEKSRDLDYIGEAINQLEHSLQCAYFAQRSGADNEMVLAALLHDLGHYCNDTSFEDMGGYGVWQHEKVGADYLRGLGFSERVACLIEGHVAAKRYLVSSKASYLKNLSDASRKTLEYQGGPMDEGERRLFEEREDFKDCLKIRAWDEKGKQTDLKVPGPEHYRKMMEEHLSENQN
For the molecule B1, in data set [2], the Michaelis-Menten constant (Km) amounted to 107 ± 29 µM and the kcat was 15 ± 3 s⁻¹.

B2: PhoF (Fonsecaea multimorphosa CBS 102226) (protein)
chain: MSVPEEQMQFFRKNGYLILRNVLSEEETKDLQRWAQEVHDWPTDANSPWMPYEEINAQGQTVLCRTENYANSHAGLNGLLRGQKLLNLLKQLSGEDMLLFKEKINYKLAGSGGFAPHVDSTAYTHIKNIKHLAILLAVDPSDMSNGGLEVVEGSHEMNVPIGEDNCIEPDWVKQQKWTPVELKAGQVLVFGSYLAHRSGANHSNQDRKALYATYNCAREGDLHDEYYAHRKVVWPPAQLRKKGEEYKVGALVYGFGSPMLSVDAGKQLEFDEEEWKSKPRAAKAASRIIDILNQYGNSDYIGEPISQIEHSLQCAYLAAQNMADPQTVAAALLHDIGQIIPERDAEHILGGAQVRSMRQNSGIGADSRSSDSVGRVSHETLGAQYLLALGFPAKVAELVEAHVPAKRYLCATEKGYYSTLSDASKESLRFQGGPMSPDEVRLWQEGSWADEKANLRRWDDGAKVVGLTVPGLETYRPVLEQVLSS
In the case of B2, the Km came to 43 ± 23 µM in data set [3], 197 ± 73 µM in data set [4] and 305 ± 263 µM in data set [5]. The figures for the kcat in data set [3], in data set [4] and in data set [5] were 9 ± 2 s⁻¹, 1.16 ± 0.17 s⁻¹ and 0.57 ± 0.30 s⁻¹, respectively.
